In paper PMC8605023 (Nature Communications, 2021):
Read-outs that look alike come from different tables or passages of the source. Ends that are not written are not given here. * marks the point of attachment. FITC = O=C1OC2(c3ccc(O)cc3Oc3cc(O)ccc32)c2ccc(NC(=S)*)cc21

Experiments:
Conditions in all cases: both partners purified
[1] = molecular target: G3BP1 NTF2 domain (human, UniProt Q13283 11-133)
[2] = molecular target: T1, G3BP2 NTF2 domain (human, UniProt Q9UN86 11-133)
T1 sequence (looked up): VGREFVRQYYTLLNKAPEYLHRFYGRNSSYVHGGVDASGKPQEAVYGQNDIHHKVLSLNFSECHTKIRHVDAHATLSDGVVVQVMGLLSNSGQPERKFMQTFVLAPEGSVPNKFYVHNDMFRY

[3] = molecular target: G3BP1 NTF2 domain, His-GST-tagged (human, UniProt Q13283 11-133)
[4] = molecular target: T2, G3BP2 NTF2 domain, His-GST-tagged (human, UniProt Q9UN86 11-133)
T2 sequence (looked up): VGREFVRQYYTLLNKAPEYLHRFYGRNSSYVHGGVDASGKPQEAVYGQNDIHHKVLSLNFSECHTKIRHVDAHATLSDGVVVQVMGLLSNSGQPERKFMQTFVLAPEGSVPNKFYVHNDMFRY

[5] = molecular target: T3, Radixin FERM domain (human, UniProt P35241 5-295)
T3 construct: also called RDX
T3 sequence (P35241 5-295): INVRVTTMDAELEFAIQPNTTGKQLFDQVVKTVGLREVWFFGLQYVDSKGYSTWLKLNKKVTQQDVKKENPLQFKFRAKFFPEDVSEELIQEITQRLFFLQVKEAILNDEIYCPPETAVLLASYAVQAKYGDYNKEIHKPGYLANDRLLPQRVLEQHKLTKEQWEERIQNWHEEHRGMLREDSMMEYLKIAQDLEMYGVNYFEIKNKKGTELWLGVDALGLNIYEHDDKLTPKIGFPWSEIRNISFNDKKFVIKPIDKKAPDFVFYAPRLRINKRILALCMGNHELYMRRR

[6] = molecular target: Ezrin FERM domain (human, UniProt P15311 2-296)
Target sequence in this assay (P15311 2-296): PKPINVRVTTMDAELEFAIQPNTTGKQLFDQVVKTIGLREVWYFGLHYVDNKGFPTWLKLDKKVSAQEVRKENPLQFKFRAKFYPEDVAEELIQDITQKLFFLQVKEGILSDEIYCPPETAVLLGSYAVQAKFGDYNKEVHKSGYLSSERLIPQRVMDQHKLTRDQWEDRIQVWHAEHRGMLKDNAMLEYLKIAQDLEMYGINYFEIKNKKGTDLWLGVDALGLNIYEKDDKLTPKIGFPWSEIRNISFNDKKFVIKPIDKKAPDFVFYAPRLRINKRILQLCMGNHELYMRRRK

[7] = molecular target: T4, Ezrin FERM domain (human, UniProt P15311 2-296)
T4 construct: also called EZR FERM
T4 sequence (P15311 2-296): as above

[8] = molecular target: T5, Radixin FERM domain (human, UniProt P35241 5-295)
T5 construct: also called RDX; RDX FERM
T5 sequence (P35241 5-295): as the sequence (P35241 5-295) above

[9] = molecular target: USP7 MATH domain (human, UniProt Q93009 68-195)
Sequence of USP7 MATH domain (Q93009 68-195): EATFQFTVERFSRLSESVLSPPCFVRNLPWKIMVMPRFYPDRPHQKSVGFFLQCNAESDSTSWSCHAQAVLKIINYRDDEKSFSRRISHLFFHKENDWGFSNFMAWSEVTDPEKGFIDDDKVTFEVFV

Sequence of G3BP1 NTF2 domain (Q13283 11-133): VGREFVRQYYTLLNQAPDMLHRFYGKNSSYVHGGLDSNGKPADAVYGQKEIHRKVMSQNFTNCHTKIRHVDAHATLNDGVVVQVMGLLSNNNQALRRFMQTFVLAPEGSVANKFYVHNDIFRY
Sequence of G3BP1 NTF2 domain, His-GST-tagged (Q13283 11-133): as above

QGLPLEFGASAETVRY [NSP3 peptide 958-972 (Sars-CoV)] was tested, and the IC50 [1] was 320 µM, the Ki [1] was 119 µM and the IC50 [2] was 130 µM. For the same binder, the Ki [2] was 47 µM.

For APRAVTFGDNNDNNTY [N peptide 6-20 (Mers1)], the IC50 [1] was 130 µM, the Ki [1] was 51 µM and the IC50 [2] was 80 µM.

{FITC}-APRITFGGPSDS [N FITC-APRITFGGPSDS] gave a Kd [3] of 3.2 ± 0.1 µM and a Kd [4] of 2.1 ± 0.1 µM.

Binder {FITC}-YYSVNTFKEHHSTPTI [FITC-Kirrel3 peptide 668-683] has a Kd [5] of 0.485 µM.

Binder VDTSNSFEVLAVEDTQY [NSP3 peptide 1996-2011 (Sars-CoV)] has an IC50 [6] of 200 µM, a Ki [6] of 218 µM and an IC50 [5] of 200 µM. The Ki [5] was 56.2 µM.

APRITFGGPTDSTDNY [N peptide 13-27 (Sars-CoV)] was tested, and the IC50 [1] was 10 µM.

AQMQGPYNFIQDSMLD [CAPRIN1 peptide 364-379] gave an IC50 [2] of 29 µM.

With PSKLPTFGAPEQLVDY [TRIM25 peptide 400-414] the IC50 [1] was 120 µM, the Ki [1] was 46 µM and the IC50 [2] was 53 µM. It also gave a Ki [2] of 17 µM.

In the case of {FITC}-YYSVNTFKEHHSTPTI (also called Kirrel probe peptide) [Kirrel FITC-YYSVNTFKEHHSTPTI], the Kd [7] is reported as 1.4 ± 0.1 µM and the Kd [8] is reported as 0.485 ± 0.003 µM.

With {FITC}-DYSQPSTSSSIIY (also called MDM2 probe peptide) [MDM2 FITC-DYSQPSTSSSIIY] the Kd [9] was 0.49 ± 0.06 µM.

PVPPIEFGVSPKDSDY [PRRC2B peptide 1780-1794] gave an IC50 [2] of 53 µM and a Ki [2] of 19 µM.

With NLQFGALQFGSEPVY [UBAP2L peptide 515-528] the IC50 [1] was 104 µM, the IC50 [2] was 79 µM and the Ki [2] was 32 µM.

ESLPFSFGTLSSWELE [DDIT3 peptide 4-19] was tested, and the IC50 [2] was 30 µM and the Ki [2] was 12 µM.
